# Results as given in patent US20260209350A1.
# Changes are numbered by the printed parent chain.
# B1: Ab52 (antibody, human IgG1, V domains shown)
# VH: QVQLVQSGAEVKKPGASVKVSCKASGYTFTSYYIHWVRQAPGQGLEWMGIINPSGGSTSYAQKFQGRVTMTRDTSTSTVYMELSSLRSEDTAVYYCAREADDSSGYPLGLDVWGQGTMVTVSS
# VL: EIVMTQSPATLSVSPGERATLSCRASQSVSSNLAWYQQKPGQAPRLLIYGASTRATGIPARFSGSGSGTEFTLTISSLQSEDFAVYYCQQVNSLPPTFGGGTKVEIK
# B2: Ab45 (antibody, human IgG1, V domains shown)
# VH: QVQLVQSGAEVKKPGASVKVSCKASGYTFTSYYMHWVRQAPGQGLEWMGIINPSGGSTSYAQKFQGRVTMTRDTSTSTVYMELSSLRSEDTAVYYCARGPGYTTALDYYYMDVWGKGTTVTVSS
# VL: EIVMTQSPATLSVSPGERATLSCRASQSVSSNLAWYQQKPGQAPRLLIYGASTRATGIPARFSGSGSGTEFTLTISSLQSEDFAVYYCQQLDDWFTFGGGTKVEIK
# B3: Ab12 (antibody, human IgG1, V domains shown)
# VH: EVQLVQSGAEVKKPGESLKISCKGSGYSFTSYWIGWVRQMPGKGLEWMGIIYPGDSDTRYSPSFQGQVTISADKSISTAYLQWSSLKASDTAMYYCARLGHYSGTVSSYGMDVWGQGTTVTVSS
# VL: DIQMTQSPSSLSASVGDRVTITCRASQSISSYLNWYQQKPGKAPKLLIYAASSLQSGVPSRFSGSGSGTDFTLTISSLQPEDFATYYCQQEYAVPYTFGGGTKVEIK
# B4: Ab63 (antibody, human IgG1, V domains shown)
# VH: QVQLVQSGAEVKKPGASVKVSCKASGYTFTSYGISWVRQAPGQGLEWMGWISTYNGNTNYAQKLQGRVTMTTDTSTSTAYMELRSLRSDDTAVYYCARGSGSGYDSWYDWGQGTLVTVSS
# VL: B3 VL with L11V, S28G, S30D, Y32W, N34A, E91A, A93S, V94L, Y96P
# B5: Ab82 (antibody, human IgG1, V domains shown)
# VH: QVQLQESGPGLVKPSQTLSLTCTVSGGSISSGGYYWSWIRQHPGKGLEWIGYIYYSGSTVYNPSLKSRVTISVDTSKNQFSLKLSSVTAADTAVYYCARVSSSWYKAWGQGTMVTVSS
# VL: B3 VL with L11V, S28G, Y32W, N34A, E91A, Y92S, A93T, V94F, Y96I
# B6: Ab83 (antibody, human IgG1, V domains shown)
# VH: QVQLQQWGAGLLKPSETLSLTCAVYGGSFSGYYWSWIRQPPGKGLEWIGEIDHSGSTKYNPSLKSRVTISVDTSKNQFSLKLSSVTAADTAVYYCARVGVVVGRPGYSAFDIWGQGTMVTVSS
# VL: B3 VL with L11V, S28G, Y32W, N34A, E91R, Y92N, A93S, V94L, Y96L
# B7: Ab8 (antibody, human IgG1, V domains shown)
# VH: QLQLQESGPGLVKPSETLSLTCTVSGGSISSSSYYWGWIRQPPGKGLEWIGSISYSGSTYYNPSLKSRVTISVDTSKNQFSLKLSSVTAADTAVYYCARGPYRLLLGMDVWGQGTTVTVSS
# VL: B3 VL with A50G, E91I, Y92D, A93D, V94T, Y96I
# B8: Ab54 (antibody, human IgG1, V domains shown)
# VH: B2 VH
# VL: B3 VL with S30N, E91S, Y92D, A93D, V94D, Y96F
# B9: Ab73 (antibody, human IgG1, V domains shown)
# VH: EVQLVQSGAEVKKPGESLKISCKGSGYSFTSYWIGWVRQMPGKGLEWMGIIYPGDSDTTYSPSFQGQVTISADKSISTAYLQWSSLKASDTAMYYCARAKMLDDGYAFDIWGQGTMVTVSS
# VL: B1 VL with V91D, N92D, S93N, L94Y, P96Y
# B10: Ab51 (antibody, human IgG1, V domains shown)
# VH: QVQLVQSGAEVKKPGASVKVSCKASGYTFTSYYMHWVRQAPGQGLEWMGIINPSGGSTSYAQKFQGRVTMTRDTSTSTVYMELSSLRSEDTAVYYCARGVGGQDYYYMDVWGKGTTVTVSS
# VL: DIQMTQSPSSLSASVGDRVTITCRASQSISSYLNWYQQKPGKAPKLLIYAASSLQSGVPSRFSGSGSGTDFTLTISSLQPEDFATYYCQQFDDVFTFGGGTKVEIK
# B11: Ab64 (antibody, human IgG1, V domains shown)
# VH: EVQLVQSGAEVKKPGESLKISCKGSGYSFTSYWIGWVRQMPGKGLEWMGIIYPGDSDTRYSPSFQGQVTISADKSISTAYLQWSSLKASDTAMYYCARLGRWSSGSTAFDIWGQGTMVTVSS
# VL: B2 VL with L91D, W94G, F95Y
# B12: Ab15 (antibody, human IgG1, V domains shown)
# VH: QVQLQESGPGLVKPSQTLSLTCTVSGGSISSGGYYWSWIRQHPGKGLEWIGNIYYSGSTVYNPSLKSRVTISVDTSKNQFSLKLSSVTAADTAVYYCARGLYGYGVLDVWGQGTMVTVSS
# VL: DIQMTQSPSSLSASVGDRVTITCQASQDISNYLNWYQQKPGKAPKLLIYDASNLETGVPSRFSGSGSGTDFTFTISSLQPEDIATYYCQQFDTYPTFGGGTKVEIK
# B13: Ab72 (antibody, human IgG1, V domains shown)
# VH: QVQLQESGPGLVKPSETLSLTCTVSGGSISSYYWSWIRQPPGKGLEWIGSIYYSGSTNYNPSLKSRVTISVDTSKNQFSLKLSSVTAADTAVYYCARSGTETLFDYWGQGTLVTVSS
# VL: DIQMTQSPSSLSASVGDRVTITCQASQDITNYLNWYQQKPGKAPKLLIYDASNLETGVPSRFSGSRSGTDFTFTISSLQPEDIATYYCQQDVNYPPTFGGGTKVEIK
# Molecular target: T1, recombinant human TREM2-DAP12 fusion protein on cells (human) (UniProt Q9NZC2)
# T1 sequence: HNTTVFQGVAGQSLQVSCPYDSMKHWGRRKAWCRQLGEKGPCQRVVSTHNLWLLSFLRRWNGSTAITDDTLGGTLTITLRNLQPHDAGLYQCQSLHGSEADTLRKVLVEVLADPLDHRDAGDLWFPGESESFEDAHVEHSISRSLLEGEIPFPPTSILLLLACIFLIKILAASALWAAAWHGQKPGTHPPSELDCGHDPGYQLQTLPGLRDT
# Assay: FACS, 293 cells
row,MFI [MFI],Binder
1,1410,B1
2,2060,B2

# Molecular target: T1, recombinant human TREM2-DAP12 fusion protein on cells (human)
# Assay: FACS, hTrem2 cells
row,MFI [MFI],Binder
1,1930,B3
2,1350,B4
3,371,B5
4,684,B6
5,1620,B7
6,1930,B8
7,1410,B1
8,1310,B9
9,1930,B10
10,1460,B11
11,1610,B12
12,1500,B13
